Literature values as cited in article PMC10179296.

Biological target: CCL2 (Homo sapiens) (UniProt P13500)
Test: isothermal fluorescence titration

Sequence of Tenascin-C (P24821 23-2201): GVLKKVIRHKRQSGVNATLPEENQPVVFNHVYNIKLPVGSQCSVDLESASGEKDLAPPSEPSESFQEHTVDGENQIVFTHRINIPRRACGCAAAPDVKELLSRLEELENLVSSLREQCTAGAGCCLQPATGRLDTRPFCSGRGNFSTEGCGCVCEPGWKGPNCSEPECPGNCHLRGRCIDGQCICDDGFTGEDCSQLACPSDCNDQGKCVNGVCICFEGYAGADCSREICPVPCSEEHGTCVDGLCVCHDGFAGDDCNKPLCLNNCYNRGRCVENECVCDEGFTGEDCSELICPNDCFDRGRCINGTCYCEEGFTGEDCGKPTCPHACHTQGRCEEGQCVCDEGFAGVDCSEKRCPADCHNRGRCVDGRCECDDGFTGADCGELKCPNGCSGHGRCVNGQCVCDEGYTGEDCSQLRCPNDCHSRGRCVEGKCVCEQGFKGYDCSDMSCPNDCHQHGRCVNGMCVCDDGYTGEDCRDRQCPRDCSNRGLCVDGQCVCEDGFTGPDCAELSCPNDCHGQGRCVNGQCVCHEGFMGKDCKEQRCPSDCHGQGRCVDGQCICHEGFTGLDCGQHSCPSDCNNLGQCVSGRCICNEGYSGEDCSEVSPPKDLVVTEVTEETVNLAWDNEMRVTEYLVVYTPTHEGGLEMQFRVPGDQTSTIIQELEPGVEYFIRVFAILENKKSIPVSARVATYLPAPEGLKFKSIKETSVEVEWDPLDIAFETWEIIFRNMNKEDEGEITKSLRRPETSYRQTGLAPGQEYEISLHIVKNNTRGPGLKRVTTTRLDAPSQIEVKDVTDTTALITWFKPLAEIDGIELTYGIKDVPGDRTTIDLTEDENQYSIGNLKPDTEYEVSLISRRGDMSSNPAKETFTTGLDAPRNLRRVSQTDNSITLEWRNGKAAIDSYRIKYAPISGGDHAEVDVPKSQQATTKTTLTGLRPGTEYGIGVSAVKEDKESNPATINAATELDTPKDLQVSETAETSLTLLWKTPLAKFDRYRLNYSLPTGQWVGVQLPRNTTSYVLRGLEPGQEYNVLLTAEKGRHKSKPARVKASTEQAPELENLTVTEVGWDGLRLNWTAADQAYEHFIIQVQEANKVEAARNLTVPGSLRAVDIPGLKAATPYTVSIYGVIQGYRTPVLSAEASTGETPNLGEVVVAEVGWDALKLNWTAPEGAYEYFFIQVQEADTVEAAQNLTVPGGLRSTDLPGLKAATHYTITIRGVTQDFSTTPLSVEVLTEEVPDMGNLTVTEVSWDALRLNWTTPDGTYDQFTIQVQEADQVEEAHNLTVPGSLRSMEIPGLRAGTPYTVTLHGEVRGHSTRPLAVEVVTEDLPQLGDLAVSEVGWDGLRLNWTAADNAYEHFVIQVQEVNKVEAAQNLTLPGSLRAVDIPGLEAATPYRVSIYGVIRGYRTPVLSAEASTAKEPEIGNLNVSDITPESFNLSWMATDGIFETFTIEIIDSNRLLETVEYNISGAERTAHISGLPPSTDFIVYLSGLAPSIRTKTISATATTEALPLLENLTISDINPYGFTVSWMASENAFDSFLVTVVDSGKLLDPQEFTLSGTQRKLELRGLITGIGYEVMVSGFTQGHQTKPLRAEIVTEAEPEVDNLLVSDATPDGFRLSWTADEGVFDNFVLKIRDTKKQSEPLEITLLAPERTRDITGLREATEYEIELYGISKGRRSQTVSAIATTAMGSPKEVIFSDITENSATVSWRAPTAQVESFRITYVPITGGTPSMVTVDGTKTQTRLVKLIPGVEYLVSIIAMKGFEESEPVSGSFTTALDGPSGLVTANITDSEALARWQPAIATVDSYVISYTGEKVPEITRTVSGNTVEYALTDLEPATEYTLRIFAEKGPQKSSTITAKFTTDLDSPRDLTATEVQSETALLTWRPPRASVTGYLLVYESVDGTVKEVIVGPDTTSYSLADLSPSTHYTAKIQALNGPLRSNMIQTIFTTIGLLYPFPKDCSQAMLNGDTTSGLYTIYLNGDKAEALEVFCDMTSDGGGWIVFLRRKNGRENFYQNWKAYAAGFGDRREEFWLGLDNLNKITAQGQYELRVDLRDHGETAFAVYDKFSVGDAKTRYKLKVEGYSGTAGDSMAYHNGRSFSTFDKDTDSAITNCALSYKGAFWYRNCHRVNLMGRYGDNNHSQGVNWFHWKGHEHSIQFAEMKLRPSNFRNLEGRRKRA
Sequence of CCL2 (Homo sapiens) (P13500 24-99): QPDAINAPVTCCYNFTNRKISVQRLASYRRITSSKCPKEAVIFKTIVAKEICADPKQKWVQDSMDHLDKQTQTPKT

Kd: 2.33 µM
Substance: Tenascin-C (from UniProt P24821)
